Laboratory results published in patent US11466286B2, “Methods and compositions for conferring and/or enhancing herbicide tolerance using protoporphyrinogen oxidase or variant thereof” (FarmHannong Co., Ltd., priority 2016, dated 2022).
Residue numbers refer to the chain shown, from its start. Names and notes keep the numbering of the source.

B1: CyPPO10 I408R + F360M: CyPPO10 (SEQ ID NO: 2) PPO variant (protein)
chain: MIEVDVAIVGGGLSGLSVAWRLQRSAPHYSGVLLEASDRLGGNITTQAAEGFVWELGPNSFAPTPALLQLIAEVGLHSELIRGDRHLPRYIYWRGELYPLEPTRPLALATSNLLSPWGKVRAALGALGFVPPYLGSGDESVDSFFRRHLGQEVAERLVAPFVSGVYAGDPQQLSAAAAFRRIAQLEKLGGSLIAGALRLRRQQPPQPKPPAQVQMRPGELGSFREGLAALPRAIAQQLKAPLHLQTPVEAITPEPKGGYLLRSGEQTWHARSVVLATPAYQTAELVAPFQPAIARALATIPYPTVACVVLAYPAGLGRSVRPGFGVLVPRGQGIRTLGTIWSSCLFPQRTPAGWQVFTSMIGGATDPDLASLREEAIVEQVQQDLTRLLDLPAAKARLLGMKVWRRARPQYIVGYPQQWQQVTHALTQTPGLFLCSNYAEGVALGDRVEHGNRTAAAVAAYLAGGQS
modifications: Synthetic CyPPO10
B2: CyPPO10 F161A: CyPPO10 (SEQ ID NO: 2) PPO variant (protein)
chain: B1 chain with F161A, M360F, R408I
modifications: Synthetic CyPPO10
B3: CyPPO10 F324V: CyPPO10 (SEQ ID NO: 2) PPO variant (protein)
chain: B1 chain with F324V, M360F, R408I
modifications: Synthetic CyPPO10
B4: CyPPO10 A167L: CyPPO10 (SEQ ID NO: 2) PPO variant (protein)
chain: B1 chain with A167L, M360F, R408I
modifications: Synthetic CyPPO10
B5: CyPPO10 L327T: CyPPO10 (SEQ ID NO: 2) PPO variant (protein)
chain: B1 chain with L327T, M360F, R408I
modifications: Synthetic CyPPO10
B6: CyPPO10 V165C: CyPPO10 (SEQ ID NO: 2) PPO variant (protein)
chain: B1 chain with V165C, M360F, R408I
modifications: Synthetic CyPPO10
B7: CyPPO10 R89A: CyPPO10 (SEQ ID NO: 2) PPO variant (protein)
chain: B1 chain with R89A, M360F, R408I
modifications: Synthetic CyPPO10
B8: CyPPO10 I340T: CyPPO10 (SEQ ID NO: 2) PPO variant (protein)
chain: B1 chain with I340T, M360F, R408I
modifications: Synthetic CyPPO10
B9: CyPPO10 I408W + F360M: CyPPO10 (SEQ ID NO: 2) PPO variant (protein)
chain: B1 chain with R408W
modifications: Synthetic CyPPO10
B10: CyPPO10 F360T: CyPPO10 (SEQ ID NO: 2) PPO variant (protein)
chain: B1 chain with M360T, R408I
modifications: Synthetic CyPPO10
B11: CyPPO10 Q184G: CyPPO10 (SEQ ID NO: 2) PPO variant (protein)
chain: B1 chain with Q184G, M360F, R408I
modifications: Synthetic CyPPO10
B12: CyPPO13 F373L: CyPPO13 (SEQ ID NO: 4) PPO variant (protein)
chain: MNPATPEPLNAEVVVIGAGISGLTLAWRLQQGLSARGGSPQAVLLAEASSRVGGCISTQSKDGYRWEEGPNSFTPTPALLNLIAEVGLTDQLVLADAKLPRYIYWEGALLPVPLSPAAALGSRLLSVGGKLRALQGLLGFVPPPPGHEETVRQFFRRQLGSEVAERLVEPFTSGVYAGDPDQLSAVAAFPRVAGLEERYGSLFAGALQALRQRPQPSPAAIQPPPKRGQLGNLRQGLQQLPEALAQKLGDSLRLGWRALQLKRAGELYWVGFETPEGSRWVAARQVVLALPAYEAAALLQELNPPASQLLAEILYPPVAVVALAYPQEALPQPLRGFGHLIPRSQGLRTLGTIWASCLFPERAPQGYHSFLSLLGGATDAALARRRGIPPIPALSPEERAQIAHAELSQVLLTRRAEPVYLGERLWPRAIPQYTLGHRQRIAQVQAHLASQTPGIWVCANYLDGVALGDCVRRAEALAQQLLSQV
modifications: Synthetic CyPPO13
B13: CyPPO13 A177C + F373M: CyPPO13 (SEQ ID NO: 4) PPO variant (protein)
chain: B12 chain with A177C, L373M
modifications: Synthetic CyPPO13
B14: CyPPO13 A177L + F373M: CyPPO13 (SEQ ID NO: 4) PPO variant (protein)
chain: B12 chain with A177L, L373M
modifications: Synthetic CyPPO13
B15: CyPPO13 V318M + F373M: CyPPO13 (SEQ ID NO: 4) PPO variant (protein)
chain: B12 chain with V318M, L373M
modifications: Synthetic CyPPO13
B16: CyPPO13 F373T: CyPPO13 (SEQ ID NO: 4) PPO variant (protein)
chain: B12 chain with L373T
modifications: Synthetic CyPPO13
B17: CyPPO13 A177L + F373T: CyPPO13 (SEQ ID NO: 4) PPO variant (protein)
chain: B12 chain with A177L, L373T
modifications: Synthetic CyPPO13
B18: CyPPO13 F373V: CyPPO13 (SEQ ID NO: 4) PPO variant (protein)
chain: B12 chain with L373V
modifications: Synthetic CyPPO13
B19: CyPPO13 F373H: CyPPO13 (SEQ ID NO: 4) PPO variant (protein)
chain: B12 chain with L373H
modifications: Synthetic CyPPO13
B20: CyPPO13 R101A + F373M: CyPPO13 (SEQ ID NO: 4) PPO variant (protein)
chain: B12 chain with R101A, L373M
modifications: Synthetic CyPPO13
B21: CyPPO13 V175L + F373M: CyPPO13 (SEQ ID NO: 4) PPO variant (protein)
chain: B12 chain with V175L, L373M
modifications: Synthetic CyPPO13
B22: CyPPO13 F373N: CyPPO13 (SEQ ID NO: 4) PPO variant (protein)
chain: B12 chain with L373N
modifications: Synthetic CyPPO13
B23: CyPPO13 A177L + F373V: CyPPO13 (SEQ ID NO: 4) PPO variant (protein)
chain: B12 chain with A177L, L373V
modifications: Synthetic CyPPO13
B24: CyPPO13 A177I + F373M: CyPPO13 (SEQ ID NO: 4) PPO variant (protein)
chain: B12 chain with A177I, L373M
modifications: Synthetic CyPPO13

tested on: CyPPO10; experiment: PPO enzyme activity and IC50 by herbicides, CyPPO10 wild type and variants (MBP-PPO fusion); assay type: biochemical, Thermosynechococcus elongatus BP-1; settings: PPO enzyme activity of CyPPO10 protein, wild type = 100
Experimental: (§1) The enzyme activities of PPO protein and PPO protein variants were examined, and inhibition assay by PPO-inhibiting herbicides was conducted. It was confirmed that the PPO protein has low water-solubility, but in case of being expressed as a fusion protein with MBP (maltose binding protein) (MBP-PPO), the PPO protein is able to be stably expressed as water-soluble form. Therefore, the wild type and variant proteins which were expressed in the form of fusion protein with MBP were used in the present test (refer to FIG. 4).
(§2) In order to express wild type genes and mutant genes of CyPPO10 and CyPPO13 (refer to Example 1 and Example 4), those genes were introduced to pMAL-c2X vector (refer to FIG. 5) respectively, and then cloned to BL21 (DE3) E. coli (CodonPlus).
(§3) The enzyme activity of the purified wild type protein and variant proteins of CyPPO10 and CyPPO13 was measured by the following process.
(§4) At first, a substrate of PPO protein, Protoporphyrinogen IX was synthesized. This process was performed in the space where nitrogen gas is streamed. 6 mg of protoporphyrin IX was dissolved in 20% (v/v) EtOH 20 ml, and stirred under dark condition for 30 minutes. The obtained protoporphyrinogen IX solution was put into a 15 ml screw tube in an amount of 800 and flushed with nitrogen gas for 5 minutes. To this, 1 g of sodium amalgam was added and vigorous shaking was performed for 2 minutes. The lid was open to exhaust hydrogen gas in the tube. Thereafter, the lid was closed and incubated for 3 minutes. The […] was filtered using syringe and cellulose membrane filter. To 600 μl of the obtained […], 2M MOPS [3-(N-morpholino)propanesulfonic acid] was added in an amount of approximately 300 thereby adjusting pH to 8.0. To determine the enzyme activity of PPO protein, a reaction mixture was prepared with the following composition (based on 10 ml): 50 mM Tris-Cl (pH 8.0); 50 mM NaCl; 0.04% (v/v) Tween 20; 40 mM glucose (0.072 g); 5 units glucose oxidase (16.6 mg); and 10 units catalase (1 μl).
(§5) Two hundred microliters (200 μl) of reaction mixture containing a purified PPO protein were placed in 96 well plates, and preincubated for 30 min at room temperature to reduce the oxygen concentration by the reaction of glucose oxidase-catalase. The mineral oil was layered and then the reaction was initiated by adding the substrate, […], to a final concentration of 50 μM. The reaction proceeded at room temperature for 30 min and the fluorescence of protoporphyrin IX was measured using Microplate reader (Sense, Hidex) (excitation: 405 nm; emission: 633 nm). To calculate the PPO enzyme activity, protoporphyrinogen IX solution was kept open in the air to oxidize the solution (overnight). To this, 2.7N HCl was added, and the absorbance at 408 nm was measured. A standard curve was generated using standard protoporphyrin IX, and the PPO activity was measured by calibration of protoporphyrin IX using the standard curve of protoporphyrin IX.
(§6) The final concentration of each herbicide was as follows: […]

Molecule | Activity (%)
B1 | 5%
B2 | 92%
B3 | 59%
B4 | 95%
B5 | 84%
B6 | 99%
B7 | 83%
B8 | 19%
B9 | 5%
B10 | 85%
B11 | 97%

tested on: CyPPO13; experiment: PPO enzyme activity and IC50 by herbicides, CyPPO13 wild type and variants (MBP-PPO fusion); assay type: biochemical, Synechococcus sp. JA-3-3Ab; settings: PPO enzyme activity of CyPPO13 protein, wild type = 100
Experimental: as §1, §2, §3, §4, §5, §6

Molecule | Activity (%)
B12 | 82%
B13 | 77%
B14 | 75%
B15 | 72%
B16 | 81%
B17 | 62%
B18 | 83%
B19 | 26%
B20 | 55%
B21 | 93%
B22 | 40%
B23 | 49%
B24 | 75%
